Measured values from patent US20160047821.
Residue numbers refer to the chain shown, from its start.

Columns and labels:
[1] = biological target: T1, GST-RelB deletion mutant Δ2 (amino acids 316-377)
T1 chain: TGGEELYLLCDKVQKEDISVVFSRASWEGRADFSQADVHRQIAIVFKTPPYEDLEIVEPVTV

[2] = biological target: T2, GST-RelB Δ4 point mutant S458A
T2 chain: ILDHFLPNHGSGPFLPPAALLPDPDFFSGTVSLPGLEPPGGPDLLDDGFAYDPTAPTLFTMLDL

[3] = biological target: T3, GST-RelB Δ4 point mutant S468A
T3 chain: T2 chain with A18S, S28A

[4] = biological target: T4, GST-RelB deletion mutant Δ5 (amino acids 499-580)
T4 chain: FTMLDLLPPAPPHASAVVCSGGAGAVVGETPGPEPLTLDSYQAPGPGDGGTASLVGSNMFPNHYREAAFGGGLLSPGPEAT

[5] = biological target: T5, GST-RelB Δ4 point mutant S451A
T5 chain: T2 chain with S11A, A18S

[6] = biological target: T6, GST-RelB deletion mutant Δ3 (amino acids 372-448)
T6 chain: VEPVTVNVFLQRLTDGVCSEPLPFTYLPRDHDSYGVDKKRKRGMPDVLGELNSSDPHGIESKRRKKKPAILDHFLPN

[7] = biological target: T7, GST-RelB deletion mutant Δ4 (amino acids 441-504)
T7 chain: T2 chain with A18S

[8] = biological target: T8, GST-RelB Δ4 point mutant S472A
T8 chain: T2 chain with A18S, S32A

[9] = biological target: T9, GST-RelB deletion mutant Δ1 (amino acids 274-321)
T9 chain: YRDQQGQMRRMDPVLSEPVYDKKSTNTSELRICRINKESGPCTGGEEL

B1: IκB kinase (IKK) complex (endogenous, WT MEFs) (protein)
chain 1: MERPPGLRPGAGGPWEMRERLGTGGFGNVSLYQHRELDLKIAIKSCRLELSSKNRERWCHEIQIMKKLDHANVVKACDVPEELNFLINDVPLLAMEYCSGGDLRKLLNKPENCCGLKESQILSLLSDIGSGIRYLHENKIIHRDLKPENIVLQDVGGKTIHKIIDLGYAKDVDQGSLCTSFVGTLQYLAPELFENKPYTATVDYWSFGTMVFECIAGYRPFLHHLQPFTWHEKIKKKDPKCIFACEEMTGEVRFSSHLPQPNSLCSLIVEPMESWLQLMLNWDPQQRGGPIDLTLKQPRCFALMDHILNLKIVHILNMTSAKIISFLLPCDESLHSLQSRIERETGINTGSQELLSETGISLDPRKPASQCVLDGVRGCDSYMVYLFDKSKTVYEGPFASRSLSDCVNYIVQDSKIQLPIIQLRKVWAEAVHYVSGLKEDYSRLFQGQRAAMLSLLRYNANLTKMKNTLISASQQLKAKLEFFRKSIQLDLERYSEQMTYGISSEKMLKAWKEMEEKAIHYSEVGVIGYLEDQIMSLHTEIMELQKSPYGRRQGDLMESLEQRAIDLYKQLKHRPPDHLYSDSTEMVKIIVHTVQSQDRVLKELFGHLSKLLGCKQKIIDLLPKVEVALSNIKEADNTVMFMQGKRQKEIWHLLKIACTQSSARSLVGSSLEGTVTPPVSAWLPPTLADREHPLTCVVTPQDGETLAQMIEENLNCLGHLSTIIREANEDQSSSLMSLDWSWLAE
chain 2: MSWSPSLPTQTCGAWEMKERLGTGGFGNVIRWHNQATGEQIAIKQCRQELSPKNRNRWCLEIQIMRRLNHPNVVAARDVPEGMQNLAPNDLPLLAMEYCQGGDLRRYLNQFENCCGLREGAVLTLLSDIASALRYLHENRIIHRDLKPENIVLQQGEKRLIHKIIDLGYAKELDQGSLCTSFVGTLQYLAPELLEQQKYTVTVDYWSFGTLAFECITGFRPFLPNWQPVQWHSKVRQKSEVDIVVSEDLNGAVKFSSSLPFPNNLNSVLAERLEKWLQLMLMWHPRQRGTDPQYGPNGCFRALDDILNLKLVHVLNMVTGTVHTYPVTEDESLQSLKTRIQENTGILETDQELLQKAGLVLLPDKPATQCISDSKTNEGLTLDMDLVFLLDNSKINYETQITPRPPPESVSCILQEPKRNLSFFQLRKVWGQVWHSIQTLKEDCNRLQQGQRAAMMSLLRNNSCLSKMKNAMASTAQQLKAKLDFFKTSIQIDLEKYKEQTEFGITSDKLLLAWREMEQAVEQCGRENDVKHLVERMMALQTDIVDLQRSPMGRKQGGTLDDLEEQARELYRKLREKPRDQRTEGDSQEMVRLLLQAIQSFEKKVRVIYTQLSKTVVCKQKALELLPKVEEVVSLMNEDERTVVRLQEKRQKELWNLLKIACSKVRGPVSGSPDSMNVSRLSHPGQLMSQPSSACDSLPESDKKSEELVAEAHALCSRLESALQDTVKEQDRSFTTLDWSWLQMEDEERCSLEQACD
chain 3: MNKHPWKNQLSEMVQPSGGPAEDQDMLGEESSLGKPAMLHLPSEQGTPETLQRCLEENQELRDAIRQSNQMLRERCEELLHFQVSQREEKEFLMCKFQEARKLVERLSLEKLDLRSQREQALKELEQLKKCQQQMAEDKASVKAQVTSLLGELQESQSRLEAATKDRQALEGRIRAVSEQVRQLESEREVLQQQHSVQVDQLRMQNQSVEAALRMERQAASEEKRKLAQLQAAYHQLFQDYDSHIKSSKGMQLEDLRQQLQQAEEALVAKQELIDKLKEEAEQHKIVMETVPVLKAQADIYKADFQAERHAREKLVEKKEYLQEQLEQLQREFNKLKVGCHESARIEDMRKRHVETPQPPLLPAPAHHSFHLALSNQRRSPPEEPPDFCCPKCQYQAPDMDTLQIHVMECIE
IKKγ kinase assays (phosphorylation of the GST-RelB substrate, 32P autoradiography) [1]: Only mutant Δ4 was efficiently phosphorylated by IKKγ
in vitro kinase assays (phosphorylation of GST-RelB Δ4 point mutants) [2]: only a point mutation at serine 472 abolished phosphorylation of the Δ4 RelB deletion mutant
in vitro kinase assays (phosphorylation of GST-RelB Δ4 point mutants) [3]: only a point mutation at serine 472 abolished phosphorylation of the Δ4 RelB deletion mutant
IKKγ kinase assays (phosphorylation of the GST-RelB substrate, 32P autoradiography) [4]: Only mutant Δ4 was efficiently phosphorylated by IKKγ
in vitro kinase assays (phosphorylation of GST-RelB Δ4 point mutants) [5]: only a point mutation at serine 472 abolished phosphorylation of the Δ4 RelB deletion mutant
IKKγ kinase assays (phosphorylation of the GST-RelB substrate, 32P autoradiography) [6]: Only mutant Δ4 was efficiently phosphorylated by IKKγ
IKKγ kinase assays (phosphorylation of the GST-RelB substrate, 32P autoradiography) [7]: Only mutant Δ4 was efficiently phosphorylated by IKKγ
in vitro kinase assays (phosphorylation of GST-RelB Δ4 point mutants) [8]: only a point mutation at serine 472 abolished phosphorylation of the Δ4 RelB deletion mutant
IKKγ kinase assays (phosphorylation of the GST-RelB substrate, 32P autoradiography) [9]: Only mutant Δ4 was efficiently phosphorylated by IKKγ
